Data reported in PMC6150290.

Tests used:
Experiment in all cases: EMSA
Details in all cases: EMSA: 0.5 nM DNA duplex, 20 uL, 10 mM Tris-HCl pH 7.6, 5 mM DTT, 10% (component cut off in material), no NaCl; temperature not in material
C145S hAGT (human) = tested on: C145S hAGT (human)
[1] = tested on: S134P OGT (Escherichia coli)
[2] = tested on: OGT (wild type) (Escherichia coli)

Control (G-C)
Kd (C145S hAGT (human)): 10600 nM | Kd [1]: 860 nM | Kd [2]: 1230 nM
